{"source": "patent US20240294963", "key": {"Interferon-gamma (IFNγ)": {"molecular_target": "Interferon-gamma (IFNγ) (UniProt P01579)", "sequence (P01579 24-166)": "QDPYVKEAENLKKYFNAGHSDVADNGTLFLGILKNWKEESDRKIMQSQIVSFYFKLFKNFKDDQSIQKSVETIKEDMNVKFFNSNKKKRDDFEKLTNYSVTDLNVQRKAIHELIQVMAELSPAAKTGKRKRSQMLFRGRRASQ"}, "[1]": {"tested_on": "T1, peptide with the sequence TNYS found in IFNγ", "T1 sequence": "TNYS"}, "[2]": {"tested_on": "constant region (Fc) of a human immunoglobulin antibody (IgG1) [IgG part: P01857]"}, "[3]": {"tested_on": "T2, peptide with the YNST sequence from Fc", "T2 sequence": "YNST"}, "[4]": {"molecular_target": "Granulocyte-Macrophage Colony-Stimulating Factor (GM-CSF) (UniProt P04141)", "sequence (P04141 18-144)": "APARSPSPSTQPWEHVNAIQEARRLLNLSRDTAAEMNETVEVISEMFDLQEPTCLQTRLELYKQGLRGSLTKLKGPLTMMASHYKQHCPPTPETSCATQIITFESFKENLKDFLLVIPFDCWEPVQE"}, "[5]": {"tested_on": "T3, peptide with the LNLS sequence from GM-CSF", "T3 sequence": "LNLS"}}}
{"substance": "ApQ mutant A469I", "values": [{"measurement": "protein modification (glycosylation), LC-qTOF of tryptic peptides", "setting": "Interferon-gamma (IFNγ)", "result": "increase the modification of the therapeutic proteins IFNγ GM-CSF, and Fc using the A469I, T438S, and H495D mutants of ApQ, respectively"}, {"measurement": "peptide modification (glycosylation), SAMDI-MS", "setting": "[1]", "result": "the purified A469I mutant glycosylated the sequence TNYS found in IFNγ more efficiently than did ApQ"}]}
{"substance": "ApQ mutant H495D", "values": [{"measurement": "modification of Fc relative to ApQ, 2 µM H495D added before CFPS", "setting": "[2]", "result": "significantly increased the modification of Fc to 60% or by 1.3-fold"}, {"measurement": "modification of Fc, 2 µM H495D added before CFPS", "setting": "[2]", "result": "significantly increased the modification of Fc to 60% or by 1.3-fold"}, {"measurement": "modification of Fc, 5 µM H495D during CFPS", "setting": "[2]", "result": "80% modification of Fc could be achieved"}, {"measurement": "peptide modification (glycosylation), SAMDI-MS", "setting": "[3]", "result": "H495D glycosylated the YNST sequence from Fc more efficiently than did ApQ"}]}
{"substance": "Q469A mutant of Actinobacillus pleuropneumoniae N-glycosyltransferase (ApNGT)", "values": [{"measurement": "protein modification (glycosylation), LC-qTOF of tryptic peptides", "setting": "Interferon-gamma (IFNγ)", "result": "ApQ showed no detectable modification of IFNγ (marked as \"ND\")"}, {"measurement": "glycosylation efficiency of Fc, 2 µM ApQ added after CFPS", "setting": "[2]", "result": "the glycosylation efficiency of Fc was increased from 15% to 46%"}, {"measurement": "glycosylation efficiency of Fc, 2 µM ApQ added before CFPS", "setting": "[2]", "result": "the glycosylation efficiency of Fc was increased from 15% to 46%"}]}
{"substance": "ApQ mutant T438S", "values": [{"measurement": "protein modification (glycosylation), LC-qTOF of tryptic peptides", "setting": "[4]", "result": "increase the modification of the therapeutic proteins IFNγ GM-CSF, and Fc using the A469I, T438S, and H495D mutants of ApQ, respectively"}, {"measurement": "peptide modification (glycosylation), SAMDI-MS", "setting": "[5]", "result": "T438S glycosylated the LNLS sequence from GM-CSF more efficiently than did ApQ"}]}
